The text below walks through data of patent US8809529B2, “Imidazo[1,2-α]pyrazine derivatives” (Promega Corporation, priority 2010, dated 2014).

One series concerns the target T1, L27V02 enzyme (Oplophorus gracilirostris, UniProt Q9GV45, A31E/A60N/A81I/F95D/I117V/K70R/L54V/L99Q/M102K/N193R/P142E/Q151K/Q38R/Q45L/V71I/Y165I).
T1 construct: The N-terminus of the OgLuc variant L27V is methionine, valine and phenylalanine, i.e., MVF; made in house
In words: Luminescence of compounds with purified L27V02 enzyme. Type of series: biochemical. The conditions noted are these: 20 μM compound, 36 pM L27V02, pH 7, 3 min. As to the method: Compounds PBI-4525, PBI-4540 and PBI-4541 were screened for their ability to detect luminescence. […] The assay reagent was then mixed with 36 pM purified L27V02 enzyme (described in Example 25B), in DMEM without Phenol Red and 0.1% PRIONEX®. As a control, assay buffer with 20 μM PBI-3939 or PBI-4528 was used. Luminescence was measured as previously described 3 min after the assay reagent was added to the enzyme mixture.

The target of the next series is T2, OgLuc variant 9B8 opt (Oplophorus gracilirostris, UniProt Q9GV45, A31E/A60K/A81I/F95Y/I117V/L99Q/M102K/N193R/P142E/Q151K/Q38R/Q45L/V71I/Y165I).
T2 construct: made in house; host or cells: E. coli (crude lysate)
In words: Multiplex assay with red click beetle luciferase and 9B8 opt (modified DUAL-GLO). Type of series: biochemical. As to the method: A. Lysates of E. coli expressing the variant 9B8 opt were prepared as previously described in Example 27 and diluted 1000-fold in DMEM without phenol red+0.1% PRIONEX®. Luminescence from a sample containing 6.3 μg/mL of purified red click beetle luciferase and E. coli lysate expressing the variant 9B8 opt was detected using a modified DUAL-GLO® Luciferase Assay System (Promega Corp.). DUAL-GLO® STOP&GLO® Reagent containing 20 μM coelenterazine-h and DUAL-GLO® STOP&GLO® Reagent containing 20 μM PBI 3939 were used, according to the manufacturer's protocol, to detect the red click beetle luciferase and OgLuc variant 9B8 luciferase from a single sample. Three replicates were performed.
Luminescence was detected on a Turner MODULUS™ luminometer. […] The standard deviation (“+/−”) and coefficient of variance (“CV”) are also shown. A “no coelenterazine” control was performed to illustrate the amount of quenching of the red click beetle signal by the DUAL-GLO® STOP&GLO® Reagent of the DUAL-GLO® Luciferase Assay System in the absence of coelenterazine. The “no coelenterazine” control yielded a 349-fold quench.

A short description of series [1]: Stability of coelenterazines in reporter reagent buffer (T90). Conditions: time for luminescent signal to decay by 10% at 22° C.; read with OgLuc variant IV lysate.
Another series has as its system HEK293 cells. In words: Toxicity of coelenterazines in HEK293 cells (CELLTITER-GLO). Conditions: 24 hrs after compound addition.
Series [2] has as its system cAMP response element (CRE). Kind of series: CRE transcriptional reporter, forward transfection, HEK293 cells. The format is cell-based, human. Set-up: Response: scale not given here. Conditions: for baseline: 10 nM FSK; for baseline / RLU (10 μM FSK): 3 h. The method, then:
HEK293 cells were plated at 15,000 cells/well in six 96-well tissue culture plates. Cells were grown in 100 μL of DMEM+10% FBS+1× non-essential amino acids (NEAA) and incubated overnight at 37° C. The cells were transiently transfected with either 10 ng or 100 ng plasmid DNA/well of pGL4.29 9B8 opt, pGL4.29 9B8 opt-P, or pGL4.29. Plasmid DNA was mixed with 850 μL of OPTI-MEM® (Invitrogen) and 32.4 μL of FUGENE® HD transfection reagent (Promega Corp.) and incubated at room temperature for 10 min. Eight μL of the transfection/reporter DNA mixture was added to the appropriate wells (2 constructs/plate). Cells were incubated for 4 hrs at 37° C. The medium was replaced with OPTI-MEM®+0.5% dialyzed FBS+1×NEAA+1× sodium pyruvate+1× Penn-Strep and incubated overnight at 37° C.
A lytic reagent containing 100 mM MES pH 6.1, 1 mM CDTA, 150 mM KCl, 35 mM thiourea, 2 mM DTT, 0.25% TERGITOL® NP-9 (v/v), 0.025% MAZU® DF 204, and 20 μM PBI-3939 was added to the cells containing pGL4.29 9B8 opt or pGL4.29 9B8 opt-P and allowed to incubated for 10 min at room temperature (100 μL lytic reagent added to 100 μL cells). ONE-GLO™ assay reagent (Promega Corp.) was added to cells containing pGL4.29 and used according to the manufacturer's protocol (100 μL reagent added to 100 μL cells). Luminescence was measured on a GLOMAX® Luminometer.

Series [3] concerns CRE. Kind of series: CRE transcriptional reporter, bulk transfection, NIH3T3 cells. Type of series: cell-based. The method, then: (§1) The transcriptional reporter containing […] and 9B8 opt-P was used in the bulk transfection of HeLa cells
(§2) HEK293, NIH3T3, or HeLa cells were plated to a single well of a 6-well tissue culture plate the day before transfection at a density of 4.5×10^5 cells/well in 3 mL complete medium (DMEM+10% FBS+1×NEAA+1× sodium pyruvate) for HEK293 cells, 3×10^5 cellsNvell in 3 mL complete medium (DMEM+10% fetal calf serum (FCS)+1×NEAA+1× sodium pyruvate) for NIH3T3 cells, or 9.9×10^5 cells/well in 3 mL complete medium (DMEM+10% FBS+1×NEAA) for HeLa cells. Cells were grown overnight at 37° C.
(§3) 3,300 ng of reporter plasmid DNA in 155 4 OPTI-MEM® was mixed with 9.9 μL FUGENE® HD transfection reagent, vortexed briefly, and incubated at room temperature for 10 min. The CRE transcriptional reporters were used to transfect HEK293 and NIH3T3 cells. The HRE transcriptional reporters were used to transfect HeLa cells. The reporter mixture was added to cells and mixed by gentle rocking followed by incubation at 37° C. for 6 hrs (HEK293 and NIH3T3) or 3 hrs (HeLa). Cells were then trypsinized and resuspended in medium (DMEM+10% FBS+1×NEAA+1× sodium pyruvate for HEK293 cells, DMEM+10% FCS+1×NEAA+1× sodium pyruvate for NIH3T3 cells, or DMEM+10% FBS+1×NEAA for HeLa cells), followed by plating to the individual wells of a 96-well plate (20,000 cells/100 μL for HEK293, 10,000 cells/100 4 for NIH3T3, or […] for HeLa) and incubated at 37° C. overnight.
(§4) FSK (CRE stimulator) or 17-AAG (HRE stimulator; 17-Allylamino-demethoxy geldanamycin) in OPTI-MEM® was added to the cells (10 nM or 10 μM final concentration for FSK; 1 nM or 1 μM final concentration for 17-AAG) and incubated at 37° C. for 4 hrs (FSK) or 6 hrs (17-AAG). Plates were removed from the incubator and allowed to equilibrate to room temperature for 25 min. Cells were lysed with 100 μL lytic reagent as described above for the forward transfection. Luminescence was measured on a GLOMAX® Luminometer.

The test system of series [4] is CRE. In words: CRE transcriptional reporter, bulk transfection, HEK293 cells. Type of series: cell-based, human. The method, then:
as §1, §2, §3, §4

Series [5] relates to antioxidant response element (ARE). In words: ARE transcriptional reporter, reverse transfection, HEK293 cells. The format is cell-based, human. The conditions noted are these: for baseline: 24 h, 100 ng DNA. The method, then:
HEK293 cells were trypsinized (T75 flask, 3 mL trypsin) and resuspended in […] (approximately 8.9×10^6 total cells) in medium containing DMEM+10% FBS+1×NEAA. Each transcriptional reporter was prepared for transfection by mixing 1.2 mL OPTI-MEM®, 12 μL transcription reporter DNA (100 ng) and 36 μL FUGENE® HD transfection reagent together and incubated at room temperature for 35 min. Following incubation, 624 μL of the transfection/reporter DNA mixture was added to 12 mL of cell suspension and mixed by inversion. After mixing, 100 μL of the cell/DNA mixture was added to wells of a 96-well plate (2 constructs/plate). The cells were incubated at 37° C. for 22 hrs. Tert-butylhydroquinone (a Nrf2 stabilizer; tBHQ; 1 μM (“baseline”) or 20 μM) or sulphoraphane, (an organosulfer antioxidant known to activate Nrf2; 1 μM (“baseline”) or 20 μM) in OPTI-MEM® was added to each well and incubated at 37° C. for 24 hrs. Cells were lysed with 100 μL lytic reagent as described above for the forward transfection. Luminescence was measured on a GLOMAX® Luminometer.

Series [6] has as its system heat shock response element (HRE). Kind of series: HRE transcriptional reporter, bulk transfection, HeLa cells. The format is cell-based. The method, then: as §1, §2, §3, §4
Series [7] relates to antioxidant response element (ARE). Kind of series: ARE transcriptional reporter, reverse transfection, HEK293 cells. The format is cell-based, human. Conditions: 24 h, 100 ng DNA.

T1 sequence (Q9GV45 28-196 with tags or gaps with the stated changes limits assumed, one chain of several): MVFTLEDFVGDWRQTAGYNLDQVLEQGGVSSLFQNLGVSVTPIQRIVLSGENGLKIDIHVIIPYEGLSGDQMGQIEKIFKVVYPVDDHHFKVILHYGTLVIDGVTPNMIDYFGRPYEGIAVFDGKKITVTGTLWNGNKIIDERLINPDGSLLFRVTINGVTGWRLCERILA

For the molecule `O=c1c(Cc2ncc[nH]2)nc2c(Cc3ccccc3)[nH]c(-c3ccccc3)cn1-2` [PBI-4541, 2-((1H-imidazol-2-yl)methyl)-8-benzyl-6-phenylimidazo[1,2-a]pyrazin-3(7H)-one], at L27V02 enzyme, the RLU was 5,676 RLU.
For “coelenterazine-h [Coelenterazine h, reference compound]”, at OgLuc variant 9B8 opt (20 μM substrate in DUAL-GLO STOP&GLO Reagent), the “Ogluc (average luminescence generated by 9B8 opt)” value is 921,440. On OgLuc variant 9B8 opt (Ogluc signal relative to no coelenterazine control), the “+/− coel” value was determined as 64. Also, the “Stability (pH 8) (T90 in hrs)” value in series [1] is recorded as 2.1 hrs. Further, the “Viability (normalized to vehicle (DMSO) control) (%)” value in the series on HEK293 cells was 100%.

B1: 9B8 opt-P: 9B8 opt further comprising the PEST protein degradation sequence (protein)
chain: MVFTLEDFVGDWRQTAGYNLDQVLEQGGLSSLFQKLGVSVTPIQKIVLSGENGLKIDIHVIIPYEGLSGYQMGQIEKIFKVVYPVDDHHFKVILHYGTLVIDGVTPNMIDYFGRPYEGIAVFDGKKITVTGTLWNGNKIIDERLINPDGSLLFRVTINGVTGWRLCERILANSHGFPPEVEEQAAGTLPMSCAQESGMDRHPAACASARINV
As for B1, the Response in series [2] (10 ng DNA for transfection) was 121; in series [2] (100 ng DNA for transfection), 168; in the series on CRE [3] (NIH3T3, FSK), 9; in the series on CRE [4] (HEK293, FSK), 116; in series [5] (sulphoraphane), 15; in [5] (tBHQ), 27. In addition, the Response in series [6] (17-AAG) worked out at 12. The baseline in [2] (10 ng DNA for transfection) is listed as 11179; in series [2] (100 ng DNA for transfection), 122,071; in the series with CRE [3] (NIH3T3, 10 nM FSK, 4 h), 410,461; in the series on CRE [4] (HEK293, 10 nM FSK, 4 h), 3,960,000; in [5] (1 μM sulphoraphane), 258,406; in series [5] (1 μM tBHQ), 317,238. Further, the baseline in series [6] (6 h) is listed as 278,118. The “RLU (10 μM FSK)” value in [2] (10 ng DNA for transfection) is 1,353,459 RLU; in [2] (100 ng DNA for transfection) it was 20,544,753 RLU. Further, the “RLU (10 mM FSK)” value in the series on CRE [3] (NIH3T3, 4 h) was 3,720,000 RLU; in the series on CRE [4] (HEK293, 4 h), 460,000,000 RLU. For the same molecule, the “RLU (1 mM 17-AAG)” value in [6] (6 h) is on record as 3,204,000 RLU. The “RLU (20 μM sulphoraphane)” value in series [7] is 3,940,000 RLU. Besides, in [7], the “RLU (20 μM tBHQ)” value is reported as 8,460,000 RLU.
